Molecular target: T1, VP16 fused near full-length AR (nAR, aa 36-918) (human, UniProt P10275 36-919)
T1 sequence: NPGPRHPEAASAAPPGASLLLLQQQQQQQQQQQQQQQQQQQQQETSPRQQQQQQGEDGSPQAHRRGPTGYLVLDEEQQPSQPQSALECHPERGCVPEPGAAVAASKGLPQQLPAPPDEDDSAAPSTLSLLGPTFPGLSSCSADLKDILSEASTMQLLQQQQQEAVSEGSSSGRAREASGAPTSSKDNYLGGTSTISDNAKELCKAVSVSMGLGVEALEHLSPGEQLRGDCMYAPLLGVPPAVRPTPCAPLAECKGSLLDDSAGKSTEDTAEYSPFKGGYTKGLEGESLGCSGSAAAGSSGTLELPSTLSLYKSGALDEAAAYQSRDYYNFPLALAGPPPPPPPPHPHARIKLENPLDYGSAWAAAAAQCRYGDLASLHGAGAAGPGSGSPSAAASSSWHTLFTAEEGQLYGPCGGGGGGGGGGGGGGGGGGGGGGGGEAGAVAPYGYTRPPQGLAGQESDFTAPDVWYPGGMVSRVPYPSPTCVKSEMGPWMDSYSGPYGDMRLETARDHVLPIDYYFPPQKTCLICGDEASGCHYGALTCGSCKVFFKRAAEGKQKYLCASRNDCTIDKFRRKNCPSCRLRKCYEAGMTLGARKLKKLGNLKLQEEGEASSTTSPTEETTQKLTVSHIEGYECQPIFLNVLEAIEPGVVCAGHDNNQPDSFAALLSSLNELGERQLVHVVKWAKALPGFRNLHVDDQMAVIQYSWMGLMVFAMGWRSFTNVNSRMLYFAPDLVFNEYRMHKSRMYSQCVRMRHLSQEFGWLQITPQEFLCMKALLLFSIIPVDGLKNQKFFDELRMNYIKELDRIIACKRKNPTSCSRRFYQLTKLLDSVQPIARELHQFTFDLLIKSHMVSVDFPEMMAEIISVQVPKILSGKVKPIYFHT
Experiment: mammalian two-hybrid, DU145, CAT

B1: PR-LBD (mammalian two-hybrid construct) (receptor, UniProt P06401 679-933, looked up)
chain: QDIQLIPPLINLLMSIEPDVIYAGHDNTKPDTSSSLLTSLNQLGERQLLSVVKWSKSLPGFRNLHIDDQITLIQYSWMSLMVFGLGWRSYKHVSGQMLYFAPDLILNEQRMKESSFYSLCLTMWQIPQEFVKLQVSQEEFLCMKVLLLLNTIPLEGLRSQTQFEEMRSSYIRELIKAIGLRQKGVVSSSQRFYQLTKLLDNLHDLVKQLHLYCLNTFIQSRALSVEFPEMMSEVIAAQLPKILAGMVKPLLFHKK
notes: domain: LBD; Construct not described
- binding result: no binding
